# Values of other authors as cited in article PMC3394898.
# Biological target: NTSR1 (Mus musculus) (UniProt O88319)
# UniProt O88319, sequence (O88319 whole entry): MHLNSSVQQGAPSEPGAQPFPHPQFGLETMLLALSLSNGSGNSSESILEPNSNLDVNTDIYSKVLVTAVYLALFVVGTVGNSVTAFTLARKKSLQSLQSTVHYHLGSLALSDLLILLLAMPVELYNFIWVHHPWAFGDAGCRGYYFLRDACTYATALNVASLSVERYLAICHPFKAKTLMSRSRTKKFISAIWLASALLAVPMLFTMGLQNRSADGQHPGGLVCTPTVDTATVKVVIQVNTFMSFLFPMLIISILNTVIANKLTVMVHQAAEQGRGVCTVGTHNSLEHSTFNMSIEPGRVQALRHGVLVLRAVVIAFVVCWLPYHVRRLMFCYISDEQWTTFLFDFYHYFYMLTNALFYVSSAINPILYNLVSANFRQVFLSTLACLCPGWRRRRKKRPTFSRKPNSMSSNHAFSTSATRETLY
substance,measurement,value
neurotensin (NTS) (from UniProt P30990),Kd,5 nM
